Source: US20240173377A1 (EPIVAX, published 2024)

Tests used:
Experiment in all cases: competition HLA binding assay: soluble HLA, labeled control peptide, capture on anti-human DR antibody, time-resolved fluorescence
HLA DRB1*1301 = molecular target: T1, HLA DRB1*1301 (human)
T1 construct: Described only as a soluble HLA molecule; also called soluble HLA molecule

HLA DRB1*0101 = molecular target: T2, HLA DRB1*0101 (human)
T2 construct: Described only as a soluble HLA molecule; also called soluble HLA molecule

HLA DRB1*0301 = molecular target: T3, HLA DRB1*0301 (human)
T3 construct: Described only as a soluble HLA molecule; also called soluble HLA molecule

HLA DRB1*0401 = molecular target: T4, HLA DRB1*0401 (human)
T4 construct: Described only as a soluble HLA molecule; also called soluble HLA molecule

HLA DRB1*0701 = molecular target: T5, HLA DRB1*0701 (human)
T5 construct: Described only as a soluble HLA molecule; also called soluble HLA molecule

HLA DRB1*1101 = molecular target: T6, HLA DRB1*1101 (human)
T6 construct: Described only as a soluble HLA molecule; also called soluble HLA molecule

Measured: binding result

B1: SEQ ID NO 115 (peptide)
peptide: ILTIHFTGHSFIYGK
notes: L-amino acid Tregitope, assayed alongside its retro-inverso counterpart
binds: all assays above

B2: SEQ ID NO 114 (peptide)
peptide: EEQYNSTYTVVSVLTVLHQD
notes: as for B1
binds: all assays above
